Source: article PMC4285296, “A complex gene locus enables xyloglucan utilization in the model saprophyte Cellvibrio japonicus” (Molecular Microbiology, 2014)

What was measured:
CjBgl35A = molecular target: T1, CjBgl35A (Cellvibrio japonicus, UniProt B3PBE0); test: isothermal titration calorimetry; type: binding
T1 construct: gene bgl35A; native signal peptide (residues 1-36) excluded; recombinant in E. coli; pET-DEST42 construct with C-terminal tag, or modified pET28a construct with N-terminal His6 tag (crystals); model residues 37-575

CjAfc95A = molecular target: T2, CjAfc95A (Cellvibrio japonicus, UniProt B3PBE3); test: HPAEC-PAD, fucose release; type: biochemical; settings: 25 °C; pH optimum 6.5; apparent value, substrate preparation was a two-component mixture of XLFG and XXFG
T2 construct: gene afc95A; full-length (no signal peptide predicted); pET-DEST42 construct with C-terminal tag; recombinant in E. coli BL21(DE3), IMAC purified
T2 sequence (B3PBE3 1-782): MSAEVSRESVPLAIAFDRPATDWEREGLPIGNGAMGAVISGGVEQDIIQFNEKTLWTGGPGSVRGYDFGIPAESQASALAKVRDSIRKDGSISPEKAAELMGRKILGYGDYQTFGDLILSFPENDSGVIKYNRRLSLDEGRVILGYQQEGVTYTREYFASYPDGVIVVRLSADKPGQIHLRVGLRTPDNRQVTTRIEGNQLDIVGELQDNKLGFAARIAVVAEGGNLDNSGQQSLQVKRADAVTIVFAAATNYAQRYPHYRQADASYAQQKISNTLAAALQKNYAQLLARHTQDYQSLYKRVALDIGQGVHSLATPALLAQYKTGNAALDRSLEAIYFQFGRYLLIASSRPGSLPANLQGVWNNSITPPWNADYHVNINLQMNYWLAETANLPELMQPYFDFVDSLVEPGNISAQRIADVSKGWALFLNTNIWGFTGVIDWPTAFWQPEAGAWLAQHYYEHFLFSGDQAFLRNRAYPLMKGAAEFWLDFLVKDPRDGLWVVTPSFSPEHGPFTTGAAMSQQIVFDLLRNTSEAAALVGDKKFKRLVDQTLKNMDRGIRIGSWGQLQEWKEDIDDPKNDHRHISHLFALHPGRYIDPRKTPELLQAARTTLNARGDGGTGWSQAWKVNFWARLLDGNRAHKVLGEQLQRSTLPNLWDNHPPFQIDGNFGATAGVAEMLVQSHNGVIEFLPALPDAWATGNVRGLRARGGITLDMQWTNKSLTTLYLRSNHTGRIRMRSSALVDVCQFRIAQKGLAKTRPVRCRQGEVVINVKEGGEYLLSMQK
Source text: HPAEC-PAD, fucose release on CjAfc95A

purified protein = substrate: O=[N+]([O-])c1ccc(O[C@@H]2O[C@H](CO)[C@H](O)[C@H](O)[C@H]2O)cc1; test: purified protein; settings: 25 °C, pH optimum 5.5 (acetate)
[1] = substrate: C[C@@H]1O[C@@H](Oc2ccc([N+](=O)[O-])cc2Cl)[C@@H](O)[C@H](O)[C@@H]1O; test: continuous chromogenic assay, 2-chloro-4-nitrophenolate release; type: biochemical, Cellvibrio japonicus; settings: 25 °C, pH optimum 6.5 (citrate)
Source text: continuous chromogenic assay, 2-chloro-4-nitrophenolate release on CjAfc95A

## OC[C@H]1NC[C@H](O)[C@@H](O)[C@H]1O [1-deoxygalactonojirimycin, 1,5-Dideoxy-1,5-imino-D-galactitol]
CjBgl35A
  Kd: 485 ± 42 nM

## C[C@@H]1O[C@@H](O[C@H]2[C@H](O[C@H]3[C@@H](OC[C@H]4O[C@@H](O[C@H]5[C@H](O)[C@@H](O)C(O)O[C@@H]5CO)[C@H](O)[C@@H](O)[C@@H]4O[C@@H]4O[C@H](CO[C@H]5OC[C@@H](O)[C@H](O)[C@H]5O[C@@H]5O[C@H](CO)[C@H](O)[C@H](O)[C@H]5O)[C@@H](O[C@@H]5O[C@H](CO[C@H]6OC[C@@H](O)[C@H](O)[C@H]6O)[C@@H](O)[C@H](O)[C@H]5O)[C@H](O)[C@H]4O)OC[C@@H](O)[C@@H]3O)O[C@H](CO)[C@H](O)[C@@H]2O)[C@@H](O)[C@H](O)[C@@H]1O (some centres unmarked) [XLFG]
CjAfc95A
  Km: 210 ± 17 µM

B1: CjBgl35A (Cellvibrio japonicus Ueda107) (protein)
chain: APLPELLSNNGKHALMVDGAPYIILGSQTNNSSNYPDALKDVWPSMEKMGANTLSIPVAWEQIEPVEGQFDFSFVDVLLKEARQRKVRLVLLWFATWKNNAPHYAPAWVKLDNARFPRVVKEDGDTLNSLSPLGQNTLAADKKAFVELMKYLAKRDKDHTVIMVQVQNEVGTYGAVRDYSPMAQAVFNAAVPDDLIQKLQLKPGTWSQVFGRDADEFFHAYQIARYCDEVTVAGKAIKNLPMYVNVALRNPFNPGLPGQYSSGGGTDNVLHIWKAAAPNIDLIAPDIYFRDYKTVSKVLELYTRPDNALFVAEIGNDQPFARYLFPTLGKGGIGFSPFGMDDTDYTNYPLGAKVYNDETIEQFAQVYRLVNPMMREWARLSYQGQVWGVAEPLDSTTETQKIWNAEATPEEKEQHKKDRASALTQQLDLGLWDAEVTYGRPMFWVTPPEGNTPAAGGALIAQLDDNEYLVTAYKARVEFKPSQELAGKKFMIERVEEGRFEKGKWVMERVWNGDQTDWGLNFTDRPHLLRVKMASYSVQ
Purified protein
  Km: 810 ± 50 µM
  kcat: 10.1 s⁻¹
  kcat/Km: 12500 M⁻¹ s⁻¹

B2: CjAfc95A (Cellvibrio japonicus Ueda107) (protein)
chain: T2 sequence (B3PBE3 1-782)
notes: full-length (no signal peptide predicted); pET-DEST42 construct with C-terminal tag; recombinant in E. coli BL21(DE3), IMAC purified
[1]
  Km: 2100 ± 200 µM
  kcat: 26.5 ± 1.1 s⁻¹
  kcat/Km: 12900 M⁻¹ s⁻¹
